Results on 1 substance are retold here after article PMC6265248.

The target of the experiment is C. reinhardtii Rubisco (CrRubisco), L8S8 holoenzyme (C. reinhardtii (endogenous in strain CC-2677)) (UniProt P00877). Description: co-sedimentation; droplet sedimentation assay of demixed (phase-separated) EPYC1-Rubisco droplets, with microscopy: 10 µl reactions, 10 min, 20 mM Tris-HCl pH 8.0, 50 mM NaCl, room temperature, 21,100 x g, SDS-PAGE and densitometry of pellet and supernatant.

The substance “Essential Pyrenoid Component 1 (EPYC1), residues 46-317 (natural protein)” came in with a stoichiometry N (EPYC1:Rubisco) of 1 to 4 and a stoichiometry N (EPYC1 molecules per Rubisco holoenzyme) of 2.
